Patent publication EP3766894A1
Positions of bridges follow the written chain, without caps; N, C: chain ends. Non-standard residues stand in square brackets, D forms with d. Primed or numbered codes have the meaning given here. Chains are numbered I, II in the order given. No end group written: not given here. *: point of attachment. Palmitoyl = CCCCCCCCCCCCCCCC(=O)*; hArg = N=C(N)NCCCC[C@H](N)C(=O)O; Nle = CCCC[C@H](N)C(=O)O; PEG2″ = not defined here

Experiments:
[1] = biological target: human Kallikrein-related peptidase 7 (hKLK7) (human), P49862; assay: activity assay
[2] = biological target: human serum albumin (HSA) (human), P02768; assay: fluorescence polarization

Sequence of human Kallikrein-related peptidase 7 (hKLK7) (human), P49862 (P49862 30-253 limits assumed): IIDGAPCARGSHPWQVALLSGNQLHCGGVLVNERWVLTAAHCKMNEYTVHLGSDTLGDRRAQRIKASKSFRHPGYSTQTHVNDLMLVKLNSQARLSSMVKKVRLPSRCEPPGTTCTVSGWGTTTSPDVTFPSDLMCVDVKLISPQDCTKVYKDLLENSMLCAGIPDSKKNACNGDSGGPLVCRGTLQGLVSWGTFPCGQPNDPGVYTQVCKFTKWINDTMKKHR

B1: KLK7 inhibitor 278-tag (final KLK7 inhibitor) (peptide)
peptide 1: PCLY[Nle]A[hArg]CGKG
peptide 2: {fluorescein-PEG2″}-EYEK(Palmitoyl)EYE
modifications: bridge I:2-I:8; not fully specified (bridges); also: chain 2 C-terminus joined via PEG2 to Lys side chain of GKG linker
[1]
  Ki: 7.4 nM
[2]
  Kd: 164 nM
